Results taken from IntAct's records for PubMed 19898420.

B1: Abscisic acid receptor PYR1 (Arabidopsis thaliana (Mouse-ear cress)), O49686 (parent)
chain: MPSELTPEERSELKNSIAEFHTYQLDPGSCSSLHAQRIHAPPELVWSIVRRFDKPQTYKHFIKSCSVEQNFEMRVGCTRDVIVISGLPANTSTERLDILDDERRVTGFSIIGGEHRLTNYKSVTTVHRFEKENRIWTVVLESYVVDMPEGNSEDDTRMFADTVVKLNLQKLATVAEAMARNSGDGSGSQVT
B2: Abscisic acid receptor PYL2 (Arabidopsis thaliana (Mouse-ear cress)), O80992 (parent)
chain: MSSSPAVKGLTDEEQKTLEPVIKTYHQFEPDPTTCTSLITQRIHAPASVVWPLIRRFDNPERYKHFVKRCRLISGDGDVGSVREVTVISGLPASTSTERLEFVDDDHRVLSFRVVGGEHRLKNYKSVTSVNEFLNQDSGKVYTVVLESYTVDIPEGNTEEDTKMFVDTVVKLNLQKLGVAATSAPMHDDE

Variants of: B1
Conditions: with HAB1, Q9CAJ0

effect of a mutation on the interaction	Variant
disrupting interaction	H115A

Variants of: B2
Conditions: with HAB1, Q9CAJ0

effect of a mutation on the interaction	Variant
decreasing interaction	R120A
decreasing interaction	H119A
